T1: DOR (Mus musculus), P32300
T1 chain: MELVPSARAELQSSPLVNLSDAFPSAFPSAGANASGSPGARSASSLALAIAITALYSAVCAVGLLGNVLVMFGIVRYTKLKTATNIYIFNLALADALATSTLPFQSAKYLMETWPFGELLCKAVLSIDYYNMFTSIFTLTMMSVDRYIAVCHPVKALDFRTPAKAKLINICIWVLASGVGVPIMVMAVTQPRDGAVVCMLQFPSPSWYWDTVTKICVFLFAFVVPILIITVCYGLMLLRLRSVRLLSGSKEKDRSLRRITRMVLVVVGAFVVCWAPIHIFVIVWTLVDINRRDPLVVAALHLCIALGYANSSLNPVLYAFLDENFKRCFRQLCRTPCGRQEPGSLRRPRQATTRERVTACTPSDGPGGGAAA

T2: 6TM/E11 6TM/E11 splice variant (Mus musculus), P42866
T2 chain: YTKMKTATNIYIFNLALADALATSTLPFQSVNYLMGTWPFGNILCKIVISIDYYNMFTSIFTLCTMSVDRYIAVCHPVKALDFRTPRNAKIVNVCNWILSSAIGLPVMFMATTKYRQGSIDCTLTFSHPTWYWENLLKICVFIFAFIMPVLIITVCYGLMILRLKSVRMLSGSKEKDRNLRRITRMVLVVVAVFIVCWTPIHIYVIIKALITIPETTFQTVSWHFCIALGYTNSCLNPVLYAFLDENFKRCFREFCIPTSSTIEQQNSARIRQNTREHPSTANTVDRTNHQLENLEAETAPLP

T3: KOR (Mus musculus), P33534
T3 chain: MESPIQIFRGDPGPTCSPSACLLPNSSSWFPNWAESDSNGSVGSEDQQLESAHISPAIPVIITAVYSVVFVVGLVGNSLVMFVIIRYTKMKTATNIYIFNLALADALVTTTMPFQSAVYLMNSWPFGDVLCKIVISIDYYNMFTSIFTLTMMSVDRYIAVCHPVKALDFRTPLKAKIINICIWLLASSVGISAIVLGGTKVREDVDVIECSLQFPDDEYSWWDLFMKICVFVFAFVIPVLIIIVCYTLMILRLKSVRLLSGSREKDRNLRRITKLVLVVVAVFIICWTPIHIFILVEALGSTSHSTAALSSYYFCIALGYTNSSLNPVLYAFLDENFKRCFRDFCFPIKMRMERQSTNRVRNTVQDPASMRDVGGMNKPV


How the values were obtained:
Assay in all cases: radioligand
Settings in all cases: modification not given
[1] = molecular target: T1, DOR (Mus musculus), P32300
[2] = molecular target: T2, 6TM/E11 6TM/E11 splice variant (Mus …)
[3] = molecular target: T3, KOR (Mus musculus), P33534
[4] = molecular target: MOR (Mus musculus), P42866
MOR (Mus musculus), P42866, sequence (P42866 whole entry): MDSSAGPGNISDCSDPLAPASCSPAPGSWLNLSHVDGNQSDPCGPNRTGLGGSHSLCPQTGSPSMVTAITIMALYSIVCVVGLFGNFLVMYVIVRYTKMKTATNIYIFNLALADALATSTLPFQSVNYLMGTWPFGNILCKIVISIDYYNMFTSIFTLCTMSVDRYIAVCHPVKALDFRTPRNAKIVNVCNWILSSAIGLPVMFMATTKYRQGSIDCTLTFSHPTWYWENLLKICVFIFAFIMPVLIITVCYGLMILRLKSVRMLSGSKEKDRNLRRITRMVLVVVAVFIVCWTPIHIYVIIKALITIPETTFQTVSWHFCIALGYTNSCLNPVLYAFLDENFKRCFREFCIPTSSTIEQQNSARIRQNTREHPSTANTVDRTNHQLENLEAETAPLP

| Binder | Kd [1] [nM] | Ki [2] [nM] | Ki [3] [nM] | Ki [4] [nM] |
| --- | --- | --- | --- | --- |
| YAFEIIG [[125I]-3 (125I-GATE3-8)] | 0.11 | – | – | – |
| YAFEVVG [[D-Ala2]deltorphin II] | – | > 1000 | > 1000 | > 1000 |
| YAFEIIG [peptide 1] | – | > 1000 | > 1000 | > 1000 |

Reference: paper PMC4472604
